From paper PMC5503940

Tests used:
αβ-tubulin heterodimer [1] = target: αβ-tubulin heterodimer
αβ-tubulin heterodimer [2] = assay: SEC-MALS; KW803 (Shodex) column, 20 mM Pipes pH 6.8, 10 μM AMPPNP; 30 μl at about 3 mg/ml tubulin–Kif2C–DARPin complexes, 0.5 ml/min
αβ-tubulin heterodimer [3] = target: αβ-tubulin heterodimer; remark: listed apart in the source

Kif2C-(sN+M) (short neck+motor construct of human Kif2C/MCAK) (from UniProt Q99661 216-598) (domain or fragment)
microtubule-stimulated ATPase, K mMT; tubulin as Taxotere-stabilized microtubules (αβ-tubulin heterodimer [1]): 1.1 µM

Kif2C-(sN+M) R420S (from UniProt Q99661 216-598) (domain or fragment)
microtubule depolymerase activity (turbidity, percent of wild-type Kif2C-(sN+M)) (αβ-tubulin heterodimer [1]): 5.7%
microtubule-stimulated ATPase, k cat; tubulin as Taxotere-stabilized microtubules (αβ-tubulin heterodimer [1]): 0.33 s⁻¹

Kif2C-(sN+M) R510A (from UniProt Q99661 216-598) (domain or fragment)
microtubule-stimulated ATPase, K mMT; tubulin as Taxotere-stabilized microtubules (αβ-tubulin heterodimer [1]): 17 µM

Kif2C-(sN+M) R540A (from UniProt Q99661 216-598) (domain or fragment)
microtubule depolymerase activity (turbidity, percent of wild-type Kif2C-(sN+M)) (αβ-tubulin heterodimer [1]): 5.5%

Kif2C-(sN+M)-(G4S)3-DARPin (Kif2C-(sN+M) linked to the D1 DARPin by a (G4S)3 peptide) (from UniProt Q99661 216-598)
stoichiometry N (tubulin:construct) (αβ-tubulin heterodimer [2]): 1

Kif2C-(sN+M)-(G4S)4-GGS-DARPin (Kif2C-(sN+M) fused to the A-C2 DARPin) (from UniProt Q99661 216-598)
microtubule-stimulated ATPase, apparent K m (K mMT); tubulin as Taxotere-stabilized microtubules (αβ-tubulin heterodimer [3]): 20 µM
tubulin-stimulated ATPase, apparent Michaelis–Menten constant (αβ-tubulin heterodimer [3]): 0.5 µM
tubulin-stimulated ATPase, k cat (αβ-tubulin heterodimer [3]): 0.1 s⁻¹
